± gives the uncertainty stated by the source.

The data set is described as follows: protein stability index of a GFP-peptide fusion (yeast GPS) (PSI 1-4); higher = more stable; sorted into four equal gates, so the index is relative within each strain. The method in brief:
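Each library plasmid carries Cherry plus GFP with a tiled 17-residue yeast protein peptide fused downstream, and the pooled library was carried in yeast. Mid-log cultures in leucine-free medium were sorted into four equal gates by GFP/Cherry ratio. Reads from Illumina sequencing of PCR-amplified plasmids from each gate were assigned to strains by barcodes. Per peptide, the protein stability index was computed as the summed products of gate read frequency and gate number.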

As for EIKKWTAVAFWSWDIAV [HRT1], the protein stability index reads like this: (doa10∆) 1.23 ± 0.076; (pdr5∆) 1.7 ± 0.073; (san1∆) 1.65 ± 0.11; (ubr1∆) 1.36 ± 0.044.

The sequence FLRKATAFNKTRGPFHF [RPL16B] came in with a protein stability index (doa10∆) of 3 ± 0.042, a protein stability index (pdr5∆) of 3.12 ± 0.045, a protein stability index (san1∆) of 2.78 ± 0.043 and a protein stability index (ubr1∆) of 3.08 ± 0.033.

Regarding NVDRLYKLNVRSNDPQS [NUT2], the protein stability index reads like this: (doa10∆) 3.22 ± 0.11; (pdr5∆) 3.2 ± 0.084; (san1∆) 3.27 ± 0.065; (ubr1∆) 3.39 ± 0.089.

Turning to KERNQKFQLQNQLEDFI [YIL149C/MLP2], the protein stability index was 3.05 ± 0.075 (doa10∆), 3.25 ± 0.066 (pdr5∆), 2.78 ± 0.05 (san1∆) and 3 ± 0.053 (ubr1∆).

Turning to EQVRKMYQEWEDETVKV [NSL1], the protein stability index runs as follows: (doa10∆) 3.7 ± 0.09; (pdr5∆) 3.52 ± 0.083; (san1∆) 3.406 ± 0.032; (ubr1∆) 3.58 ± 0.077.

Turning to LDNFETKTEALLSDVVS [YJL041W/NSP1], the protein stability index reads like this: (doa10∆) 2.4 ± 0.054; (pdr5∆) 2.72 ± 0.069; (san1∆) 2.35 ± 0.063; (ubr1∆) 2.12 ± 0.059.

In the case of VIANPKGEMKGSAITGP [RPL23A], the protein stability index reads like this: (doa10∆) 3.19 ± 0.13; (pdr5∆) 3.22 ± 0.2; (san1∆) 2.64 ± 0.14; (ubr1∆) 2.91 ± 0.23.

For the sequence QIANDPSKKRRRDFGAP [SMD1], the protein stability index was 2.81 ± 0.12 (doa10∆), 3.18 ± 0.1 (pdr5∆), 2.86 ± 0.092 (san1∆) and 3.25 ± 0.073 (ubr1∆).

Take QSISNENDVKPISIEAP [SWI3]: the protein stability index stood at 2.55 ± 0.042 (doa10∆), 2.34 ± 0.044 (pdr5∆), 2.42 ± 0.052 (san1∆) and 2.32 ± 0.037 (ubr1∆).

Consider NLDIAKDLIRTDEALFE [MED4], for which the protein stability index came out at 3.44 ± 0.22 (doa10∆), 3.29 ± 0.19 (pdr5∆), 2.46 ± 0.28 (san1∆) and 3.31 ± 0.24 (ubr1∆).

On to SLGHQTSLITAVYGPRS [MTR3], for which the protein stability index came out at 2.54 ± 0.052 (doa10∆), 2.24 ± 0.056 (pdr5∆), 2.63 ± 0.061 (san1∆) and 1.81 ± 0.053 (ubr1∆).

As for VSYKDYSIFLENENILI [SMC1], the protein stability index stood at 2.62 ± 0.13 (doa10∆), 2.81 ± 0.1 (pdr5∆) and 2.59 ± 0.086 (ubr1∆).

For the sequence FLQKFEIAFHLTLIFYD [YML103C/NUP188], the protein stability index was 1.49 ± 0.083 (doa10∆), 1.46 ± 0.044 (pdr5∆), 1.41 ± 0.12 (san1∆) and 1.35 ± 0.052 (ubr1∆).

Consider PFDKKSNSALFRAVGEG [FAS1], for which the protein stability index is, setting by setting: (doa10∆) 2.92 ± 0.074; (pdr5∆) 2.92 ± 0.082; (san1∆) 2.85 ± 0.052; (ubr1∆) 2.91 ± 0.063.

For MAKLNECPLDPGGYFIV [RET1], the protein stability index reads like this: (doa10∆) 2.87 ± 0.11; (pdr5∆) 3.28 ± 0.091; (san1∆) 2.83 ± 0.086; (ubr1∆) 3.23 ± 0.099.

In the case of DDYVLRIFAIAFTRKQA [RPS1A], the protein stability index reads like this: (doa10∆) 1.77 ± 0.019; (pdr5∆) 1.888 ± 0.017; (san1∆) 1.94 ± 0.027; (ubr1∆) 2.156 ± 0.015.

Consider ARLEPGTAIGAIGAQSI [RPO31], for which the protein stability index came to 2.76 ± 0.097 (doa10∆), 1.82 ± 0.079 (pdr5∆), 1.49 ± 0.14 (san1∆) and 2.39 ± 0.053 (ubr1∆).

In the case of KIPSASIWGNGYSGYGN [SNF5], the protein stability index turned out to be 3.25 ± 0.1 (doa10∆), 3.27 ± 0.11 (pdr5∆), 3.42 ± 0.095 (san1∆) and 3.3 ± 0.05 (ubr1∆).

Turning to NPSNTPDKDYLLSIPIS [FAS1], the protein stability index was 2.89 ± 0.078 (doa10∆), 3.1 ± 0.079 (pdr5∆), 2.88 ± 0.054 (san1∆) and 2.82 ± 0.066 (ubr1∆).

Turning to RSRISSPHGLINLNVDD [SRB4], the protein stability index worked out at 2.47 ± 0.052 (doa10∆), 2.48 ± 0.061 (pdr5∆), 2.61 ± 0.075 (san1∆) and 2.15 ± 0.043 (ubr1∆).

As for LGSDSSDGHNSEKKDTD [SRB4], the protein stability index by setting is: (doa10∆) 1.68 ± 0.11; (pdr5∆) 2.02 ± 0.2; (san1∆) 1.59 ± 0.27.

For KKQQAALTNELNELKAI [YIL149C/MLP2], the protein stability index (doa10∆) turned out to be 1.42 ± 0.052, the protein stability index (pdr5∆) came to 1.86 ± 0.07, the protein stability index (san1∆) was 1.83 ± 0.092 and the protein stability index (ubr1∆) worked out at 1.55 ± 0.051.

On to QPVLEKPLKKGSADIGA [SIR4], for which the protein stability index reads like this: (doa10∆) 3.16 ± 0.078; (pdr5∆) 3.1 ± 0.061; (san1∆) 3.08 ± 0.042; (ubr1∆) 2.94 ± 0.055.

AQQQQLSNYPQQIQEQV [YGR119C/NUP57]: the protein stability index is 2.82 ± 0.059 (doa10∆), 3.09 ± 0.058 (pdr5∆), 2.71 ± 0.046 (san1∆) and 3.02 ± 0.044 (ubr1∆).

In the case of GKLLLDEHNELMRQALA [RPO21], the protein stability index is, setting by setting: (doa10∆) 2.41 ± 0.052; (pdr5∆) 2.54 ± 0.086; (san1∆) 2.02 ± 0.074; (ubr1∆) 2.84 ± 0.051.

The record behind these values is the supplement of paper PMC9732359.
